Results reported in US10040826.

Legend:
[1] = biological target: A244 gDΔ11 gp120 (Herpes simplex virus; HIV-1); experiment: SPR
A244 Δ11 gp120 (HIV-1) [2] = experiment: SPR
[3] = biological target: 92TH023 gDΔ11 gp120 (Herpes simplex virus; HIV-1); experiment: SPR, not detailed
[4] = biological target: MN gDΔ11 gp120 (Herpes simplex virus; HIV-1); experiment: SPR, not detailed
[5] = biological target: A244 gDΔ11 gp120 (Herpes simplex virus; HIV-1); experiment: SPR, mAb captured on anti-Fc surface, monomeric gp120 as analyte
[6] = biological target: A244 gp120 (no modifications) (HIV-1); experiment: as above
A244 Δ11 gp120 (HIV-1) [7] = experiment: as above
[8] = biological target: MN gDΔ11 gp120 (Herpes simplex virus; HIV-1); experiment: Kd table; row B.MN gp120, column A32 gD+; method not given
[9] = biological target: MN gp120 (no modifications) (HIV-1); experiment: Kd table; row B.MN gp120, column A32 gD-; method not given
[10] = biological target: A244 gDΔ11 gp120 (Herpes simplex virus; HIV-1); experiment: Kd table; row AE.A244 gp120, column A32 gD+; method not given
[11] = biological target: A244 gp120 (no modifications) (HIV-1); experiment: Kd table; row AE.A244 gp120, column A32 gD-; method not given
[12] = biological target: 92TH023 gDΔ11 gp120 (Herpes simplex virus; HIV-1); experiment: Kd table; row AE.92TH023 gp120, column A32 gD+; method not given
[13] = biological target: 92TH023 gp120 (no modifications) (HIV-1); experiment: Kd table; row AE.92TH023 gp120, column A32 gD-; method not given
A244 Δ11 gp120 (HIV-1) [14] = experiment: SPR; A244 gp120 gD- Δ11 293T monomer batch 110608 flowed over immobilised A32; ratio to ConS gp140
A244 Δ11 gp120 (HIV-1) [15] = experiment: SPR; A244 gp120 gD- Δ11 293T monomer batch 110608 flowed over immobilised A32; response axis in RU
A244 Δ11 gp120 (HIV-1) [16] = experiment: SPR blocking on immobilized A244 Δ11 gp120, mAb injected to near saturation, then RV144 vaccinee IgG; against 7B2 control
[17] = biological target: MN-rgp120 (RV144 vaccine immunogen) (Herpes simplex virus; HIV-1); experiment: SPR; A32 captured on anti-Fc surface, RV144 MN-rgp120 injected at 0.5-5 µg/mL; fitted curves
[18] = biological target: A244-rgp120 (RV144 vaccine immunogen) (Herpes simplex virus; HIV-1); experiment: SPR; A32 captured on anti-Fc surface, RV144 A244-rgp120 injected at 0.5-5 µg/mL; fitted curves [lower row]

C1 mAb A32 (antibody)
fold higher affinity than to A244 gp120 [1]: 6 fold
fold higher affinity than to A244 gp120 (A244 Δ11 gp120 (HIV-1) [2]): 9 fold
fold enhancement of binding against the unmodified protein [3]: 2 to 3 fold
fold enhancement of binding against the unmodified protein [4]: 2 to 3 fold
Kd [5]: 1 nM
koff [5]: 0.000133 s⁻¹
kon [5]: 134000 M⁻¹ s⁻¹
Kd [6]: 6.25 nM
koff [6]: 0.00047 s⁻¹
kon [6]: 76800 M⁻¹ s⁻¹
Kd (A244 Δ11 gp120 (HIV-1) [7]): 0.67 nM
koff (A244 Δ11 gp120 (HIV-1) [7]): 0.00015 s⁻¹
kon (A244 Δ11 gp120 (HIV-1) [7]): 223000 M⁻¹ s⁻¹
Kd [8]: 4.15 nM
Kd [9]: 0.8 nM
Kd [10]: 0.13 nM
Kd [11]: 2.6 nM
Kd [12]: 1.35 nM
Kd [13]: 4.6 nM
Relative Binding Env/ConS gp140 (A244 Δ11 gp120 (HIV-1) [14]): 5.16
Req (A244 Δ11 gp120 (HIV-1) [15]): 2290
percent blocking of RV144 vaccinee IgG binding (A244 Δ11 gp120 (HIV-1) [16]): 66%
Kd [17]: 0.21 nM
Kd [18]: 1.13 nM
